From US20040229289A1, “Antigen binding peptides (abtides) from peptide libraries” (Cytogen Corporation, priority 1994, published 2004) come the findings set out here.

Where no end group is shown, it is not given here.

Sequences and labels used below:
B1: 7E11-C5 abtide clone 14 (peptide)
peptide: GIINANDPLPFWFMSPYTPGPAPIDINASRALVSNESG
notes: tested afterwards as synthetic 38-residue peptide (dot blot, ELISA, sandwich assay)
B2: 7E11-C5 abtide clone 17 (peptide)
peptide: DLSRNLDFGRFLLYNAYVPGFTPTFISLTAEHLSSPKG
notes: tested afterwards as synthetic 38-residue peptide
B3: 7E11-C5 abtide clone 15 (peptide)
peptide: CGRAYCLSGNYNIFGALFPGVSTPYADVGHDDAQSWRR
notes: as for B2
B4: MP-1 (peptide)
peptide: GAPVWRGNPRWRGPGGFKWPGCGNGPMCNTFTPARGGSRNNGP
notes: eluted with excess PEM peptide; also called MPI; PEM abtide MP-1

The target of the first experiment is T1, PEM peptide (human).
T1 peptide: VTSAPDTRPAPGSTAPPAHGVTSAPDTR
As to the kind of experiment: phage panning on PEM peptide, D38 library, stringent acid elution. The protocol: (§1) A peptide comprising this sequence was synthesized and used to isolate abtides from TSAR peptide libraries by methods analogous to those described above. In these experiments, the specific TSAR libraries used were R26, D38 and DC43. See FIGS. 10-12 for description of these libraries. Phage bound to PEM were eluted by either standard acid elution methods, stringent acid elution methods where phage were incubated with the PEM peptide for only 10 minutes prior to washing and elution, or were eluted using excess PEM peptide. Phage from each library were isolated that express peptides capable of binding to PEM.
Take GDAYGGIFSRPRQGLADSYIHASYTGKHFFRGPRPPTR (stringent acid elution) [V32]: the binding result is “binds”. Still for that read-out and setting: in the case of YSATLWDQFGSRQVELWSNRHASSALPFASRASVLGSR (stringent acid elution) [V40] it was “binds”. As for PLTSGSSSEYRNRDDCPVYKYATNCPRLNFSPSRYSPF (stringent acid elution) [V45], the binding result was “binds”. For STCIGAEGEWKSFHNFLQCRDATSTSSSTLDPTALRFG (stringent acid elution) [V27], the binding result was “binds”.

The target of a further experiment is T1, PEM peptide. As to the kind of experiment: phage ELISA on PEM. A general note: An ELISA detects its analyte on a solid surface through an enzyme-linked reagent.
For GDPECRGKPRGRWTGSLACTGCGNGPNSKICTRARGVSRNKGP [E60], the binding result is recorded as “no binding”.

As to STPGCSGYSGSGDPRCLTCTACGNGHTRKTLTPAHGRSTHKEP [E72], the binding result is reported as “no binding”. The same measure, in the same setting: in the case of GAPLWQGDPADEVLGGSMIPGCGIGALSQTFTPTPGGSRKNVT [E37] it was “no binding”. On to AGRELRQDEGEGGAGADVARLREGPICSTFTPARGGSCPSGL [E43], for which the binding result is reported as “no binding”. For the molecule QARVSMAISCRSGPSDLMHQGCGYGPRCNPDTTDSGGSHTNTP [E49], the binding result was “no binding”. As to GSSVCGGQPSGRGFGGLPGPGCGNGPTSNTLTSARGGFPNKGL [E27], the binding result was “no binding”.

A further experiment addresses T2, mimetope peptide 7E11-9.5 (not fully specified).
T2 peptide: LYANPGMYSRLHSPA
The experiment is described as follows: phage panning of TSAR-9 library on plate-bound 7E11-9.5 peptide. The protocol:
Next, the mimetope peptide was used to isolate abtides from a peptide library. Fifty to one hundred microliters of the solution of this peptide was used to coat the wells of a 96-well plate, the wells were blocked with 0.5% BSA in PBS, and the wells were used for screening. An aliquot of the TSAR-9 random phage library (containing approximately 3×10¹⁰ phage particles) was used as in the initial screening, and 4 rounds of screening were performed. After the first two rounds, the phage were amplified. Two more rounds of screening were then performed. By this procedure, phage from the TSAR-9 library that expressed peptides capable of binding to the 7E11-9.5 mimetope peptide were identified and isolated. The peptides containing the binding domains of these phage are abtides and were discovered to mimic the binding specificities of monoclonal antibody 7E11-C5. These abtides are termed “7E11-C5 abtides.”
In the case of RCSPIWGISYPFGLLSSNPGVCHSSDAETNIRNDILTT [7E11-C5 abtide clone 13], the binding result is on record as “binds”. On to B1, for which the binding result was “binds”. As to GHSNYCFVSTLGMPIVGFPSINARGLIHYGGSDPRLAA [7E11-C5 abtide clone 16], the binding result is “binds”. Turning to B2, the binding result is given as “binds”. The same measure, in the same setting: with B3 the entry was “binds”.

In the next experiment the target is T1, PEM peptide. The experiment is described as follows: phage panning on PEM peptide, R26 library, acid eluted. The protocol: as §1
In the case of SVHGAFLDSFFPWAADGPHGRGRLTSF (acid eluted) [A16], the binding result was “binds”. Consider SFMDYFFHTPEPKPAGYPNAYTDPKHPA (acid eluted) [A15], for which the binding result was “binds”. Regarding SLGLPWIDVFGRSSAEPWPFGRTNLPRS (acid eluted) [A39], the binding result is on record as “binds”.

Turning to SSSIFDYAPFSWGSAGLSNSSINVFERS (acid eluted) [A54], the binding result was “binds”.

Another experiment concerns the target T3, biotinylated 7E11-9.5 mimetope peptide (not fully specified (N-terminus); printed as Biotin-LYANPGMYSRLHSPA-NH2).
T3 peptide: LYANPGMYSRLHSPA-NH2
The experiment is described as follows: dot blot, synthetic abtide spotted on nitrocellulose, biotinylated mimetope in solution. Here is the method:
In some cases, these abtides were used in a dot blot experiment. In those cases, 1 μL of a 1 mg/mL solution of the 38-residue abtides was spotted onto nitrocellulose (0.2 μm or 0.45 μm, Schleicher & Schuell, Keene, NH) strips or circles. After drying (about 1/2 hour), the nitrocellulose was blocked for 1 hour in a solution of 1% BSA in PBS. The nitrocellulose was then allowed to incubate in approximately 5 mL of a solution of 0.1 mg/mL of a biotinylated 7E11-9.5 mimetope peptide (biotin-[…]). This mimetope peptide was one of those described in Section 6.1.1 above that were synthesized based upon the nine peptides that were identified in the screening of Section 6.1.1 above. After an hour, the nitrocellulose was washed approximately 5 times with a solution of 1% BSA in PBS. A 1:2000 dilution of Extravidin-Alkaline Phosphatase (4,250 units/mL) (Sigma, St. Louis, Mo.) in PBS was then added and allowed to incubate for 1 hour, after which the nitrocellulose was again washed extensively. Finally, a solution of 5-bromo-4-chloro-3-indolyl phosphate (0.15 mg/mL) and nitro blue tetrazolium (0.3 mg/mL) (Sigma, St Louis, Mo.) (BCIP/NBT) was added as an enzyme substrate. Color was allowed to develop […].
In FIG. 4, the 7E11-C5 abtides known as clone 14, clone 17, clone 15, clone 16, and clone 13 were tested for their ability to bind the biotinylated 7E11-9.5 mimetope peptide. Also tested, as a positive control, was the monoclonal antibody 7E11-C5. 7E11-C5 was spotted onto the region marked 351 in FIG. 4.
On to B1, for which the binding result is “binds”. On to B2, for which the binding result was “binds”. Take B3: the binding result was “binds”.

A further experiment has as its target T1, PEM peptide. As to the kind of experiment: phage panning on PEM peptide, D38 library, acid eluted. Here is the method: as §1
As for VQLDDTSPRASGQETSQSEYDARPLLSKFAIPRPWSR (acid eluted) [V21], the binding result is listed as “binds”. Turning to DQIGSRPQTTSRSISGSWWENAKTLWQQDYAFSAPNAA (acid eluted) [MA-32], the binding result is “binds”. As to LSDAWGNFTTSYRDSAGFPSHAMTTSQGGKRNHASRFP (acid eluted) [V23], the binding result is recorded as “binds”. Take IDSSKNRISGTGYLSFPHIRHANRRHMADDSNLAPGPS (acid eluted) [V1]: the binding result is recorded as “binds”.

Another experiment deals with T1, PEM peptide. As to the kind of experiment: phage panning on PEM peptide, DC43 library, acid eluted. Here is the method: as §1
For the molecule EEKQGGRWSTMMPRPWCHEGGCGFLYYDAMTKPKTPPIMRTAA (acid eluted) [MA-8], the binding result is given as “binds”.

For another experiment, the target named is T1, PEM peptide. As to the kind of experiment: phage panning on PEM peptide, DC43 library, eluted with excess PEM peptide. The protocol:
as §1
In the case of VFRRTARSSRPIGATVFPWYGCGNSNDETLPHHDSPPSFFLGA (eluted with excess PEM peptide) [MP-22], the binding result is on record as “binds”. Regarding GSASSCFPNFTARGVTVGFFGCGSPAHPAAPRVLNPATDFPAP (eluted with excess PEM peptide) [MP-2], the binding result was “binds”. As to NTCWTDLFWHGLPGGDLPRDGCGLPSELTTHPSRERRDASEN [MA-13], the binding result is listed as “binds”. Turning to B4, the binding result is reported as “binds”.

The target in the next experiment is T1, PEM peptide. As to the kind of experiment: phage panning on PEM peptide, DC43 library, stringent acid elution. The protocol: as §1
In the case of DPCEDGYWLSSVGRAGASIRGCGAIRRSSRTLTAEYSTRASNH (stringent acid elution) [V39], the binding result is recorded as “binds”. In the case of NVMWSSSKAGIRDCSQVPPGGCGPVNRHRASPPLTPFRHGSIR (stringent acid elution) [V4], the binding result is on record as “binds”.

As for GSKRSCWGTTISNYFRPVPEGCGSASSINPNTNTGRLPSLHRQ (stringent acid elution) [V10], the binding result is “binds”. The same measure, in the same setting: in the case of WSIGTHTGPEGKFRIPCDRSGCGGTTLTHGGLNSSPTGQHERP (stringent acid elution) [V44] it was “binds”; in that of SSASSGCLGRAEHLDLDSVWGCGSQADMSRRYSPWYGRPRTGV (stringent acid elution) [V7], “binds”.

The next experiment deals with T1, PEM peptide. As to the kind of experiment: phage panning on PEM peptide, R26 library, eluted with excess PEM peptide. The protocol:
as §1
As to ILGWPFLTGLGDSTVHPRGRKGTDPS (eluted with excess PEM peptide) [P24], the binding result was “binds”. Take RAELVNWYEWFHVTAEAETPVINSHNMT (eluted with excess PEM peptide) [P6]: the binding result is recorded as “binds”. Turning to SIPSFSMWLNQLGSAALPSKGNSQDRSD (eluted with excess PEM peptide) [P49], the binding result is “binds”. SRDDIFTGGPLVLFRGSKTSNHDVHSMR (eluted with excess PEM peptide) [P26]: the binding result was “binds”.
